From patent US20130071921A1 (Pfizer, published 2013)

Legend:
[1] = biological target: T1, Recombinant human Dkk-1 (R&D Systems cat no. 1096-DK/CF), 10xHis tag at the C terminal (human, UniProt O94907 32-266); assay: SPR screening 37C (BIAcore/ProteOn), Fab lysate over biotinylated human Dkk-1
T1 construct: the actual N-terminus of the purified protein is marked in bold italic after residue 30, but the mark is an image lost in the text; also called rhuDkk-1; hDkk-1
T1 sequence: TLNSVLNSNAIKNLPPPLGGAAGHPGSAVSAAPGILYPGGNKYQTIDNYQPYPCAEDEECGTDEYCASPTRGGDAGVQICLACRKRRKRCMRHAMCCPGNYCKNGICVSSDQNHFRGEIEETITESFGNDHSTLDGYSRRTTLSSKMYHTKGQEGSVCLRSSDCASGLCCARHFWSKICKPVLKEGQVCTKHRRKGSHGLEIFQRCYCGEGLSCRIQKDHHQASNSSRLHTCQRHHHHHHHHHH
Protocol: (§1) For screening assays to determine binding and dissociation rates of huMabJC18 variants to human Dkk1, either BIAcore or ProteOn XPR36 (BioRad, Inc.) systems were used. For the BIAcore assay, biotinylated-human Dkk1 was captured on SA (streptavidin) BIAcore chips according to the supplier's instructions. Biotinylated-human Dkk-1 protein was diluted into HBS-EP, and injected over the chip at a concentration of 5 μg/mL. Flow times across the individual chip channels were selected to achieve an antigen density of approximately 500-600 response units (RU). HBS-EP buffer was used as running buffer. Filtered recombinant E.coli cell lysates were injected at high temperature (37° C.) for 1 min at 30 ul/min, allowing a 1-5 min dissociation phase. Surfaces were regenerated with 8 mM NaOH+8% ethanol. A positive control Fab (clone 24) was injected twice at the start of the experiment, and again at the end of the assay to assess reproducibility.
(§2) For the ProteOn assay, biotinylated human Dkk-1 was injected for 1 min at serial fold dilutions empirically determined to yield different levels of immobilization (150-3000 RU) on five channels of a ProteOn NLC Neutravidin sensor chip. The sixth channel was left unmodified to serve as a reference surface. Recombinant Fabs in filtered E. coli lysates were injected at high temperature (37° C.) for 50 sec at 20 μl/min. Running buffer consisted of PBS+1 mg/ml BSA+0.005% Tween-20. The ProteOn is configured such that each injection flows over each of the five Dkk-1 channels as well as the reference channel, and six Fab samples can be injected simultaneously. Fab dissociation from the Dkk-1 surface was monitored for 20 min. The chip surface was regenerated with a 30-sec injection of 8% EtOH, 8 mM NaOH. Clone 24 Fab was used as control. Level of binding during association, and rate of dissociation for each clone was very consistent between different ligand channels.

[2] = biological target: T1, Recombinant human Dkk-1 (R&D Systems …); assay: theoretical: koff / estimated kon 1e6 1/Ms (SPR screening 37C)
Protocol: as §1
as §2, with “channels. […]” for “channels.”

B1: L3.4H2 (Fab, V domains shown)
VH: EVQLVESGGGLVQPGGSLRLSCAASGFTFSSYAISWVRQAPGKGLEWVASVSGWGDTYYPDSVKGRFTISRDNAKNSLYLQMNSLRAEDTAVYYCATSLQNYAFDYWGQGTTVTVSS
VL: EIVLTQSPATLSLSPGERATLSCRASESVDDFGISFINWYQQKPGQAPRLLIYAGSKQGSGIPARFSGSGSGTDFTLTISSLEPEDFAVYYCQQLKEVPPTFGGGTKVEIK
notes: tested as Fab (E. coli lysate, screening mode); human kappa CL and IgG2 CH1 not included here; printed changes identical to L3.4E7
**Q.** What does the source list for B1?
**A.** koff [1]: 4.8e-05 s⁻¹; Kd [2]: 0.048 nM

B2: L3.4H5 (Fab, V domains shown)
VH: EVQLVESGGGLVQPGGSLRLSCAASGFTFSSYAISWVRQAPGKGLEWVASVSGWGDTYYPDSVKGRFTISRDNAKNSLYLQMNSLRAEDTAVYYCASSLDNYAFDYWGQGTTVTVSS
VL: EIVLTQSPATLSLSPGERATLSCRASESVDDFGISFINWYQQKPGQAPRLLIYAGSKQGSGIPARFSGSGSGTDFTLTISSLEPEDFAVYYCQQLKEVPPTFGGGTKVEIK
notes: tested as Fab (E. coli lysate, screening mode); human kappa CL and IgG2 CH1 not included here
**Q.** Which koff [1] does the source give for B2 here?
**A.** The koff was 0.000808 s⁻¹.

**Q.** And the Kd [2]?
**A.** Its Kd is 0.808 nM.

B3: SL3.1D2 (Fab, V domains shown)
VH: EVQLVESGGGLVQPGGSLRLSCAASGFTFSSYAISWVRQAPGKGLEWVASVSGGGRTYYPDSVKGRFTISRDNAKNSLYLQMNSLRAEDTAVYYCATSLENYAFDYWGQGTTVTVSS
VL: EIVLTQSPATLSLSPGERATLSCRASESVDDFGISFMNWYQQKPGQAPRLLIYAASKQGSGIPARFSGSGSGTDFTLTISSLEPEDFAVYYCQQSKEVPPLFGGGTKVEIK
notes: as for B2
**Q.** Which koff [1] does the source give for B3 here?
**A.** The koff was 0.0049 s⁻¹.

**Q.** What about the Kd [2] of the same binder?
**A.** Its Kd is 4.9 nM.

B4: SL3.1F11 (Fab, V domains shown)
VH: EVQLVESGGGLVQPGGSLRLSCAASGFTFSSYAISWVRQAPGKGLEWVASVSGGGRTYYPDSVKGRFTISRDNAKNSLYLQMNSLRAEDTAVYYCATSLENYAFDYWGQGTTVTVSS
VL: EIVLTQSPATLSLSPGERATLSCRASESVDDFGISFMNWYQQKPGQAPRLLIYAASKQGSGIPARFSGSGSGTDFTLTISSLEPEDFAVYYCQQSWEVPPTFGGGTKVEIK
notes: as for B2
**Q.** What does the source list for B4?
**A.** koff [1]: 0.0054 s⁻¹; Kd [2]: 5.4 nM

B5: SL3.1F12 (Fab, V domains shown)
VH: EVQLVESGGGLVQPGGSLRLSCAASGFTFSSYAISWVRQAPGKGLEWVASVSGGGRTYYPDSVKGRFTISRDNAKNSLYLQMNSLRAEDTAVYYCATSLENYAFDYWGQGTTVTVSS
VL: EIVLTQSPATLSLSPGERATLSCRASESVDDFGISFMNWYQQKPGQAPRLLIYAASKQGSGIPARFSGSGSGTDFTLTISSLEPEDFAVYYCQQSKEVPPYFGGGTKVEIK
notes: as for B2
**Q.** For B5, which koff [1] is on record?
**A.** The koff was 0.00552 s⁻¹.

**Q.** And the Kd [2]?
**A.** The Kd was 5.52 nM.

B6: SL3.1G2 (Fab, V domains shown)
VH: EVQLVESGGGLVQPGGSLRLSCAASGFTFSSYAISWVRQAPGKGLEWVASVSGGGRTYYPDSVKGRFTISRDNAKNSLYLQMNSLRAEDTAVYYCATSLENYAFDYWGQGTTVTVSS
VL: EIVLTQSPATLSLSPGERATLSCRASESVDDFGISFMNWYQQKPGQAPRLLIYAASKQGSGIPARFSGSGSGTDFTLTISSLEPEDFAVYYCQQSIEVPPTFGGGTKVEIK
notes: as for B2
**Q.** How did the koff [1] turn out when B6 was run?
**A.** The koff was 0.00872 s⁻¹.

**Q.** What about the Kd [2] of the same binder?
**A.** Its Kd is 8.72 nM.

B7: SL3.1G9 (Fab, V domains shown)
VH: EVQLVESGGGLVQPGGSLRLSCAASGFTFSSYAISWVRQAPGKGLEWVASVSGGGRTYYPDSVKGRFTISRDNAKNSLYLQMNSLRAEDTAVYYCATSLENYAFDYWGQGTTVTVSS
VL: EIVLTQSPATLSLSPGERATLSCRASESVDDFGISFMNWYQQKPGQAPRLLIYAASKQGSGIPARFSGSGSGTDFTLTISSLEPEDFAVYYCQQLKEVPPTFGGGTKVEIK
notes: as for B2
**Q.** What does the source list for B7?
**A.** koff [1]: 0.000947 s⁻¹; Kd [2]: 0.947 nM

B8: SL3.3A10 (Fab, V domains shown)
VH: EVQLVESGGGLVQPGGSLRLSCAASGFTFSSYAISWVRQAPGKGLEWVASVSGGGRTYYPDSVKGRFTISRDNAKNSLYLQMNSLRAEDTAVYYCATSLENYAFDYWGQGTTVTVSS
VL: EIVLTQSPATLSLSPGERATLSCRASESVDDFGISFMNWYQQKPGQAPRLLIYAASKQGSGIPARFSGSGSGTDFTLTISSLEPEDFAVYYCQQSKELPPTFGGGTKVEIK
notes: as for B2
**Q.** How did the koff [1] turn out when B8 was run?
**A.** The koff was 0.00572 s⁻¹.

**Q.** And the Kd [2]?
**A.** Its Kd is 5.72 nM.

B9: SL3.3B11 (Fab, V domains shown)
VH: EVQLVESGGGLVQPGGSLRLSCAASGFTFSSYAISWVRQAPGKGLEWVASVSGGGRTYYPDSVKGRFTISRDNAKNSLYLQMNSLRAEDTAVYYCATSLENYAFDYWGQGTTVTVSS
VL: EIVLTQSPATLSLSPGERATLSCRASESVDDFGISFMNWYQQKPGQAPRLLIYAASKQGSGIPARFSGSGSGTDFTLTISSLEPEDFAVYYCQQAKEVPPTFGGGTKVEIK
notes: as for B2
**Q.** What does the source list for B9?
**A.** koff [1]: 0.012 s⁻¹; Kd [2]: 12 nM

B10: SL3.3C10 (Fab, V domains shown)
VH: EVQLVESGGGLVQPGGSLRLSCAASGFTFSSYAISWVRQAPGKGLEWVASVSGGGRTYYPDSVKGRFTISRDNAKNSLYLQMNSLRAEDTAVYYCATSLENYAFDYWGQGTTVTVSS
VL: EIVLTQSPATLSLSPGERATLSCRASESVDDFGISFMNWYQQKPGQAPRLLIYAASKQGSGIPARFSGSGSGTDFTLTISSLEPEDFAVYYCQQSKEVWPTFGGGTKVEIK
notes: as for B2
**Q.** For B10, which koff [1] is on record?
**A.** Its koff is 0.0121 s⁻¹.

**Q.** And the Kd [2]?
**A.** Its Kd is 12.1 nM.

B11: SL3.3F4 (Fab, V domains shown)
VH: EVQLVESGGGLVQPGGSLRLSCAASGFTFSSYAISWVRQAPGKGLEWVASVSGGGRTYYPDSVKGRFTISRDNAKNSLYLQMNSLRAEDTAVYYCATSLENYAFDYWGQGTTVTVSS
VL: EIVLTQSPATLSLSPGERATLSCRASESVDDFGISFMNWYQQKPGQAPRLLIYAASKQGSGIPARFSGSGSGTDFTLTISSLEPEDFAVYYCQQSSEVPPTFGGGTKVEIK
notes: as for B2
**Q.** With B11 as the binder, how does the koff [1] read?
**A.** The koff was 0.0118 s⁻¹.

**Q.** What about the Kd [2] of the same binder?
**A.** Its Kd is 11.8 nM.

B12: SL3.3H8 (Fab, V domains shown)
VH: EVQLVESGGGLVQPGGSLRLSCAASGFTFSSYAISWVRQAPGKGLEWVASVSGGGRTYYPDSVKGRFTISRDNAKNSLYLQMNSLRAEDTAVYYCATSLENYAFDYWGQGTTVTVSS
VL: EIVLTQSPATLSLSPGERATLSCRASESVDDFGISFMNWYQQKPGQAPRLLIYAASKQGSGIPARFSGSGSGTDFTLTISSLEPEDFAVYYCQQSKEVPGTFGGGTKVEIK
notes: as for B2
**Q.** With B12 as the binder, how does the koff [1] read?
**A.** Its koff is 0.0229 s⁻¹.

**Q.** What about the Kd [2] of the same binder?
**A.** Its Kd is 22.9 nM.

B13: SL3.4A10 (Fab, V domains shown)
VH: EVQLVESGGGLVQPGGSLRLSCAASGFTFSSYAISWVRQAPGKGLEWVASVSGGGRTYYPDSVKGRFTISRDNAKNSLYLQMNSLRAEDTAVYYCATSLENYAFDYWGQGTTVTVSS
VL: EIVLTQSPATLSLSPGERATLSCRASESVDDFGISFMNWYQQKPGQAPRLLIYAASKQGSGIPARFSGSGSGTDFTLTISSLEPEDFAVYYCQQSLEVPPTFGGGTKVEIK
notes: as for B2
**Q.** B13 was tested. Which koff [1] did it give?
**A.** Its koff is 0.0073 s⁻¹.

**Q.** And the Kd [2]?
**A.** The Kd was 7.3 nM.

B14: SL3.4C7 (Fab, V domains shown)
VH: EVQLVESGGGLVQPGGSLRLSCAASGFTFSSYAISWVRQAPGKGLEWVASVSGGGRTYYPDSVKGRFTISRDNAKNSLYLQMNSLRAEDTAVYYCATSLENYAFDYWGQGTTVTVSS
VL: EIVLTQSPATLSLSPGERATLSCRASESVDDFGISFMNWYQQKPGQAPRLLIYAASKQGSGIPARFSGSGSGTDFTLTISSLEPEDFAVYYCQHSKEVPPTFGGGTKVEIK
notes: as for B2
**Q.** How did the koff [1] turn out when B14 was run?
**A.** The koff was 0.0073 s⁻¹.

**Q.** And the Kd [2]?
**A.** The Kd was 7.3 nM.

B15: SL3.4D1 (Fab, V domains shown)
VH: EVQLVESGGGLVQPGGSLRLSCAASGFTFSSYAISWVRQAPGKGLEWVASVSGGGRTYYPDSVKGRFTISRDNAKNSLYLQMNSLRAEDTAVYYCATSLENYAFDYWGQGTTVTVSS
VL: EIVLTQSPATLSLSPGERATLSCRASESVDDFGISFMNWYQQKPGQAPRLLIYAASKQGSGIPARFSGSGSGTDFTLTISSLEPEDFAVYYCQQSMEVPPTFGGGTKVEIK
notes: as for B2
**Q.** With B15 as the binder, how does the koff [1] read?
**A.** Its koff is 0.0075 s⁻¹.

**Q.** And the Kd [2]?
**A.** The Kd was 7.5 nM.
